Source: paper PMC8902471
Changes are numbered by the printed parent chain.

Tests used:
Assay in all cases: EMSA
[1] = biological target: T1, Ets-1 ΔN301 MT1 (Mus musculus (murine), UniProt P27577 301-440, L337A;W338A)
T1 sequence: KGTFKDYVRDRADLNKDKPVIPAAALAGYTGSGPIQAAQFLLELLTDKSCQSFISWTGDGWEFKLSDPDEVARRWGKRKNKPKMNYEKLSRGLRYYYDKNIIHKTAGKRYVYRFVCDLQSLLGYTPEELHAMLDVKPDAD

[2] = biological target: T2, Ets-1 ΔN301 MT2 (Mus musculus (murine), UniProt P27577 301-440, L393A;Y396A)
T2 sequence: T1 sequence with A37L, A38W, L93A, Y96A

[3] = biological target: T3, Ets-1 ΔN301 MT4 (Mus musculus (murine), UniProt P27577 301-440, W338A)
T3 sequence: T1 sequence with A37L

[4] = biological target: T4, Ets-1 ΔN301 MT3 (Mus musculus (murine), UniProt P27577 301-440, L337A)
T4 sequence: T1 sequence with A38W

Measured: binding result

B1: 27-bp high-affinity ETS site DNA (dsDNA)
DNA 1: TCGACGGCCAAGCCGGAAGTGAGTGCC
DNA 2: TCGAGGCACTCACTTCCGGCTTGGCCG
no binding: all assays above
